Data taken from patent US20140087995A1 (published 2014).
Numbered stars: 1 amine (or outer) side, 2 acyl side, 3 side chain; on linkers, the order of the positions; unused ones are H or OH. Bridge positions count the residues as written; N and C are the ends. Side chains are listed from the residue outwards. Ends that are not written are not given here. * marks the point of attachment. C20 diacid = O=C(O)CCCCCCCCCCCCCCCCCCC(=O)*; γGlu = O=C(O)[C@H](CCC(=O)[*:2])N[*:1]; AEEA = NCCOCCOCC(=O)O

T1: human amylin receptor (human, UniProt P30988 25-474; O60896 24-148, limits assumed)
T1 construct: whole, on cells; Calcitonin receptor plus RAMP-3 gives the amylin 3(a) receptor; membranes of Amylin 3(a)/CRE-luc cells were used; also called hAmylin-R; hAmylinR
T1 sequence (looked up) 1: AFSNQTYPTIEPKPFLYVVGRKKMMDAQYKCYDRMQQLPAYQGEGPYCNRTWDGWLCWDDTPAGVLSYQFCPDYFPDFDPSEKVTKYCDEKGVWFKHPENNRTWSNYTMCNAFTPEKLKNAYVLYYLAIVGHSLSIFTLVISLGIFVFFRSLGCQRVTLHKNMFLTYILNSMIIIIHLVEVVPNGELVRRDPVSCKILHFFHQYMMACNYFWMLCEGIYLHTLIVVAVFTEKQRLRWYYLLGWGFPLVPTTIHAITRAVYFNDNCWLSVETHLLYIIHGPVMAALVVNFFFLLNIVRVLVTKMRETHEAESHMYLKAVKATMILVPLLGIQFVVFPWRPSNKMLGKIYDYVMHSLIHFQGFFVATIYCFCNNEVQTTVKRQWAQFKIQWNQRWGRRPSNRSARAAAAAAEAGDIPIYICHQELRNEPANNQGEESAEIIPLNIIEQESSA
T1 sequence (looked up) 2: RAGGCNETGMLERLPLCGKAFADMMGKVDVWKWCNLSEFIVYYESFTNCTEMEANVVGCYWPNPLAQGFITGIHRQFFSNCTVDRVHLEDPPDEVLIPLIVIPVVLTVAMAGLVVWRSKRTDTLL

B1: N^ε1-[2-[2-[2-[[2-[2-[2-[[(4S)-4-carboxy-4-(19-carboxynonadecanoylamino)butanoyl]amino]ethoxy]ethoxy]acetyl]amino]ethoxy]ethoxy]acetyl]-[Arg17,Pro21,Pro27,His34 … (peptide)
peptide: K([AEEA-AEEA-γGlu-C20 diacid])CNTATCATQRLANFLRHSSPNFGAIPSSTNVGHNTY-NH2
modifications: disulfide 2-7; N-terminus assumed
SMILES: CC[C@H](C)[C@H](NC(=O)[C@H](C)NC(=O)CNC(=O)[C@H](Cc1ccccc1)NC(=O)[C@H](CC(N)=O)NC(=O)[C@@H]1CCCN1C(=O)[C@H](CO)NC(=O)[C@H](CO)NC(=O)[C@H](Cc1c[nH]cn1)NC(=O)[C@H](CCCNC(=N)N)NC(=O)[C@H](CC(C)C)NC(=O)[C@H](Cc1ccccc1)NC(=O)[C@H](CC(N)=O)NC(=O)[C@H](C)NC(=O)[C@H](CC(C)C)NC(=O)[C@H](CCCNC(=N)N)NC(=O)[C@H](CCC(N)=O)NC(=O)[C@@H](NC(=O)[C@H](C)NC(=O)[C@@H]1CSSC[C@H](NC(=O)[C@@H](N)CCCCNC(=O)COCCOCCNC(=O)COCCOCCNC(=O)CC[C@H](NC(=O)CCCCCCCCCCCCCCCCCCC(=O)O)C(=O)O)C(=O)N[C@@H](CC(N)=O)C(=O)N[C@@H]([C@@H](C)O)C(=O)N[C@@H](C)C(=O)N[C@@H]([C@@H](C)O)C(=O)N1)[C@@H](C)O)C(=O)N1CCC[C@H]1C(=O)N[C@@H](CO)C(=O)N[C@@H](CO)C(=O)N[C@H](C(=O)N[C@@H](CC(N)=O)C(=O)N[C@H](C(=O)NCC(=O)N[C@@H](Cc1c[nH]cn1)C(=O)N[C@@H](CC(N)=O)C(=O)N[C@H](C(=O)N[C@@H](Cc1ccc(O)cc1)C(N)=O)[C@@H](C)O)C(C)C)[C@@H](C)O
notes: also called 17R, 21P, 27P, 34H
B2: N^ε1-[2-[2-[2-[[2-[2-[2-[[(4S)-4-carboxy-4-(19-carboxynonadecanoylamino)butanoyl]amino]ethoxy]ethoxy]acetyl]amino]ethoxy]ethoxy]acetyl]-[Arg17,Pro21,Pro27,Pro34 … (peptide)
peptide: K([AEEA-AEEA-γGlu-C20 diacid])CNTATCATQRLANFLRHSSPNFGAIPSSTNVGPNTY-NH2
modifications: disulfide 2-7; N-terminus assumed
SMILES: CC[C@H](C)[C@H](NC(=O)[C@H](C)NC(=O)CNC(=O)[C@H](Cc1ccccc1)NC(=O)[C@H](CC(N)=O)NC(=O)[C@@H]1CCCN1C(=O)[C@H](CO)NC(=O)[C@H](CO)NC(=O)[C@H](Cc1c[nH]cn1)NC(=O)[C@H](CCCNC(=N)N)NC(=O)[C@H](CC(C)C)NC(=O)[C@H](Cc1ccccc1)NC(=O)[C@H](CC(N)=O)NC(=O)[C@H](C)NC(=O)[C@H](CC(C)C)NC(=O)[C@H](CCCNC(=N)N)NC(=O)[C@H](CCC(N)=O)NC(=O)[C@@H](NC(=O)[C@H](C)NC(=O)[C@@H]1CSSC[C@H](NC(=O)[C@@H](N)CCCCNC(=O)COCCOCCNC(=O)COCCOCCNC(=O)CC[C@H](NC(=O)CCCCCCCCCCCCCCCCCCC(=O)O)C(=O)O)C(=O)N[C@@H](CC(N)=O)C(=O)N[C@@H]([C@@H](C)O)C(=O)N[C@@H](C)C(=O)N[C@@H]([C@@H](C)O)C(=O)N1)[C@@H](C)O)C(=O)N1CCC[C@H]1C(=O)N[C@@H](CO)C(=O)N[C@@H](CO)C(=O)N[C@H](C(=O)N[C@@H](CC(N)=O)C(=O)N[C@H](C(=O)NCC(=O)N1CCC[C@H]1C(=O)N[C@@H](CC(N)=O)C(=O)N[C@H](C(=O)N[C@@H](Cc1ccc(O)cc1)C(N)=O)[C@@H](C)O)C(C)C)[C@@H](C)O
notes: also called 17R, 21P, 27P, 34P
B3: N^ε1-[2-[2-[2-[[(4S)-4-carboxy-4-(19-carboxynonadecanoylamino)butanoyl]amino]ethoxy]ethoxy]acetyl]-[Arg14,Arg17,Pro21,Pro27,Pro31]-h-amylin (peptide)
peptide: K([AEEA-γGlu-C20 diacid])CNTATCATQRLARFLRHSSPNFGAIPSSTPVGSNTY-NH2
modifications: disulfide 2-7; N-terminus assumed
SMILES: CC[C@H](C)[C@H](NC(=O)[C@H](C)NC(=O)CNC(=O)[C@H](Cc1ccccc1)NC(=O)[C@H](CC(N)=O)NC(=O)[C@@H]1CCCN1C(=O)[C@H](CO)NC(=O)[C@H](CO)NC(=O)[C@H](Cc1c[nH]cn1)NC(=O)[C@H](CCCNC(=N)N)NC(=O)[C@H](CC(C)C)NC(=O)[C@H](Cc1ccccc1)NC(=O)[C@H](CCCNC(=N)N)NC(=O)[C@H](C)NC(=O)[C@H](CC(C)C)NC(=O)[C@H](CCCNC(=N)N)NC(=O)[C@H](CCC(N)=O)NC(=O)[C@@H](NC(=O)[C@H](C)NC(=O)[C@@H]1CSSC[C@H](NC(=O)[C@@H](N)CCCCNC(=O)COCCOCCNC(=O)CC[C@H](NC(=O)CCCCCCCCCCCCCCCCCCC(=O)O)C(=O)O)C(=O)N[C@@H](CC(N)=O)C(=O)N[C@@H]([C@@H](C)O)C(=O)N[C@@H](C)C(=O)N[C@@H]([C@@H](C)O)C(=O)N1)[C@@H](C)O)C(=O)N1CCC[C@H]1C(=O)N[C@@H](CO)C(=O)N[C@@H](CO)C(=O)N[C@H](C(=O)N1CCC[C@H]1C(=O)N[C@H](C(=O)NCC(=O)N[C@@H](CO)C(=O)N[C@@H](CC(N)=O)C(=O)N[C@H](C(=O)N[C@@H](Cc1ccc(O)cc1)C(N)=O)[C@@H](C)O)C(C)C)[C@@H](C)O
notes: also called 14R, 17R, 21P, 27P, 31P
B4: N^ε1-[2-[2-[2-[[(4S)-4-carboxy-4-(19-carboxynonadecanoylamino)butanoyl]amino]ethoxy]ethoxy]acetyl]-[Ala14,Arg17,Pro21,Pro27,Pro31]-h-amylin (peptide)
peptide: K([AEEA-γGlu-C20 diacid])CNTATCATQRLAAFLRHSSPNFGAIPSSTPVGSNTY-NH2
modifications: disulfide 2-7; N-terminus assumed
SMILES: CC[C@H](C)[C@H](NC(=O)[C@H](C)NC(=O)CNC(=O)[C@H](Cc1ccccc1)NC(=O)[C@H](CC(N)=O)NC(=O)[C@@H]1CCCN1C(=O)[C@H](CO)NC(=O)[C@H](CO)NC(=O)[C@H](Cc1c[nH]cn1)NC(=O)[C@H](CCCNC(=N)N)NC(=O)[C@H](CC(C)C)NC(=O)[C@H](Cc1ccccc1)NC(=O)[C@H](C)NC(=O)[C@H](C)NC(=O)[C@H](CC(C)C)NC(=O)[C@H](CCCNC(=N)N)NC(=O)[C@H](CCC(N)=O)NC(=O)[C@@H](NC(=O)[C@H](C)NC(=O)[C@@H]1CSSC[C@H](NC(=O)[C@@H](N)CCCCNC(=O)COCCOCCNC(=O)CC[C@H](NC(=O)CCCCCCCCCCCCCCCCCCC(=O)O)C(=O)O)C(=O)N[C@@H](CC(N)=O)C(=O)N[C@@H]([C@@H](C)O)C(=O)N[C@@H](C)C(=O)N[C@@H]([C@@H](C)O)C(=O)N1)[C@@H](C)O)C(=O)N1CCC[C@H]1C(=O)N[C@@H](CO)C(=O)N[C@@H](CO)C(=O)N[C@H](C(=O)N1CCC[C@H]1C(=O)N[C@H](C(=O)NCC(=O)N[C@@H](CO)C(=O)N[C@@H](CC(N)=O)C(=O)N[C@H](C(=O)N[C@@H](Cc1ccc(O)cc1)C(N)=O)[C@@H](C)O)C(C)C)[C@@H](C)O
notes: also called 14A, 17R, 21P, 27P, 31P
B5: N^ε1-[2-[2-[2-[[2-[2-[2-[[(4S)-4-carboxy-4-(19-carboxynonadecanoylamino)butanoyl]amino]ethoxy]ethoxy]acetyl]amino]ethoxy]ethoxy]acetyl]-[Arg17,Pro21,Pro27,Pro31 … (peptide)
peptide: K([AEEA-AEEA-γGlu-C20 diacid])CNTATCATQRLANFLRHSSPNFGAIPSSTPVGSNTY-NH2
modifications: disulfide 2-7; N-terminus assumed
SMILES: CC[C@H](C)[C@H](NC(=O)[C@H](C)NC(=O)CNC(=O)[C@H](Cc1ccccc1)NC(=O)[C@H](CC(N)=O)NC(=O)[C@@H]1CCCN1C(=O)[C@H](CO)NC(=O)[C@H](CO)NC(=O)[C@H](Cc1c[nH]cn1)NC(=O)[C@H](CCCNC(=N)N)NC(=O)[C@H](CC(C)C)NC(=O)[C@H](Cc1ccccc1)NC(=O)[C@H](CC(N)=O)NC(=O)[C@H](C)NC(=O)[C@H](CC(C)C)NC(=O)[C@H](CCCNC(=N)N)NC(=O)[C@H](CCC(N)=O)NC(=O)[C@@H](NC(=O)[C@H](C)NC(=O)[C@@H]1CSSC[C@H](NC(=O)[C@@H](N)CCCCNC(=O)COCCOCCNC(=O)COCCOCCNC(=O)CC[C@H](NC(=O)CCCCCCCCCCCCCCCCCCC(=O)O)C(=O)O)C(=O)N[C@@H](CC(N)=O)C(=O)N[C@@H]([C@@H](C)O)C(=O)N[C@@H](C)C(=O)N[C@@H]([C@@H](C)O)C(=O)N1)[C@@H](C)O)C(=O)N1CCC[C@H]1C(=O)N[C@@H](CO)C(=O)N[C@@H](CO)C(=O)N[C@H](C(=O)N1CCC[C@H]1C(=O)N[C@H](C(=O)NCC(=O)N[C@@H](CO)C(=O)N[C@@H](CC(N)=O)C(=O)N[C@H](C(=O)N[C@@H](Cc1ccc(O)cc1)C(N)=O)[C@@H](C)O)C(C)C)[C@@H](C)O
notes: also called 17R, 21P, 27P, 31P

target: T1, human amylin receptor; assay: SPA competition binding, displacement of 125I-rat amylin from membranes with human amylin 3(a) receptor (Assay V)
Method in brief: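 SPA beads + BHK amylin 3(a)/CRE-luc membranes, 35 ng/μL final; buffer 50 mM Hepes pH 7.4, 1 mM CaCl2, 5 mM MgCl₂, 0.1% OA, 0.02% Tween20. 120 min, 25° C, shaken; scintillation count. IC₅₀ by one-site binding competition fit, taken as receptor affinity.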

Binder | IC50 [nM]
B1 | 0.568
B2 | 0.091
B3 | 0.444
B4 | 0.172
B5 | 0.166
